# B1: RHOBTB3 (parent)
# chain: GGADIIVIKYNVNDKFSFHEVKDN
# Variants of: B1
# Experiment: protein stability index of a GFP-peptide fusion (GPS, HEK-293T) (PSI 1-6); higher = more stable
# Settings: c terminus: a fixed tail appended
# 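Further: lentivirally expressed fusions sorted by FACS into six bins by GFP to DsRed ratio, PSI derived from sequencing read proportions per bin multiplied by bin number.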
row,Variant,protein stability index
1,GGEDIIVIKYNVNDKFSFHEVKDN,1.74
2,GGQDIIVIKYNVNDKFSFHEVKDN,2.73
3,GGYDIIVIKYNVNDKFSFHEVKDN,2.96
4,GGIDIIVIKYNVNDKFSFHEVKDN,3.1
5,GGMDIIVIKYNVNDKFSFHEVKDN,2.03
6,GGHDIIVIKYNVNDKFSFHEVKDN,3.04
7,GGADIIVIKYNVADKFSFHEVKDN,3.68
8,GGADIIVIKYNVFDKFSFHEVKDN,3.47
9,GGADIIVIKYNVQDKFSFHEVKDN,3.3
10,GGADIIVIKYNVKDKFSFHEVKDN,2.92
11,GGADIIVIKYNVDDKFSFHEVKDN,1.88
12,GGADIIVIKYNVRDKFSFHEVKDN,1.99
13,GGADIIVIKYNVNDKFSFNEVKDN,3.79
14,GGADIIVIKYNVNDKFSFCEVKDN,3.17
15,GGADIIVIKYNVNDKFSFDEVKDN,1.95
16,GGADIIVIKYNVNDKFSFQEVKDN,3.57
17,GGADIIVIKYNVNDKFSFEEVKDN,2.5
18,GGADIIVIKYNVNDKFSFFEVKDN,3.33
19,GGADIIVIKYNVNDKFSFAEVKDN,2.27
20,GGADIIVIKYNVNDKFSFVEVKDN,2.72
21,GGADIIVIKYNVNSKFSFHEVKDN,3.4
22,GGADIIVIKYNVNWKFSFHEVKDN,2.63
23,GGADIIVIKYNVNYKFSFHEVKDN,3.38
24,GGADIIVIKYNVNFKFSFHEVKDN,3.63

row,Variant,protein stability index
1,GGADIIVIKYNVNHKFSFHEVKDN,2.94
2,GGADIIVIKYNVNIKFSFHEVKDN,4.53
3,GGADIIVIKYNVNNKFSFHEVKDN,3.12
4,GGADIIVIKYNVNDKFSRHEVKDN,4.04
5,GGADIIVIKYNVNDKFSMHEVKDN,1.87
6,GGADIIVIKYNVNDKFSTHEVKDN,2.63
7,GGADIIVIKYNVNDKFSWHEVKDN,2.08
8,GGADIIVIKYNVNDKFSVHEVKDN,2.49
9,GGADIIVIKYNVNDKFSCHEVKDN,3.13
10,GGADIIVIKYNVNDKFSQHEVKDN,1.99
11,GGADIIVIKYNVNDKFSFHTVKDN,1.52
12,GGADIIVIKYNVNDKFSFHKVKDN,1.88
13,GGADIIVIKYNVNDKFSFHFVKDN,2.75
14,GGADIIVIKYNVNDKFSFHIVKDN,2.61
15,GGADIIVIKYNVNDKFSFHHVKDN,1.9
16,GGADIIVIKYNVNDKFSFHPVKDN,1.33
17,GGADIIVIKYNVNDKFSFHAVKDN,1.55
18,GGADIIVIKYIVNDKFSFHEVKDN,2.24
19,GGADIIVIKYMVNDKFSFHEVKDN,3.72
20,GGADIIVIKYGVNDKFSFHEVKDN,3.11
21,GGADIIVIKYSVNDKFSFHEVKDN,2.23
22,GGADIIVIKYDVNDKFSFHEVKDN,2.29
23,GGADIIVIKYPVNDKFSFHEVKDN,3.2
24,GGADIIVIKYTVNDKFSFHEVKDN,2.43

row,Variant,protein stability index
1,GGADIIVIKYNVNDKGSFHEVKDN,2.74
2,GGADIIVIKYNVNDKKSFHEVKDN,1.73
3,GGADIIVIKYNVNDKHSFHEVKDN,1.53
4,GGADIIVIKYNVNDKYSFHEVKDN,2.62
5,GGADIIVIKYNVNDKDSFHEVKDN,2.07
6,GGADIIVIKYNVNDKPSFHEVKDN,2.55
7,GGADIIVIKYNVNDKCSFHEVKDN,2.2
8,GGADIIVIKYNVNDKASFHEVKDN,2.24
9,GGADIIVIKYNVNDKTSFHEVKDN,2.33
10,GGADIIVIKYNVNDKESFHEVKDN,2.12
11,GGADIIVIKYNVNDKFSFHEVLDN,2.43
12,GGADIIVIKYNVNDKFSFHEVPDN,3.07
13,GGADIIVIKYNVNDKFSFHEVVDN,3.25
14,GGADIIVIKYNVNDKFSFHEVSDN,2.52
15,GGADIIVIKYNVNDKFSFHEVRDN,2.61
16,GGADIIVIKYNVNDKFSFHEVQDN,2.01
17,GGADIIVIKYNVNDKFSFHEVHDN,3.97
18,GGADIIVIKYNVNDKFSFHEVMDN,2.35
19,GGADIIVIKYNVNDKFSFHEVEDN,3.13
20,GGADIIVIKYNVNDKFSFHEVTDN,2.58
21,GGADIIVIKYNVNDKFSFHEVCDN,2.88
22,AGADIIVIKYNVNDKFSFHEVKDN,2.07
23,KGADIIVIKYNVNDKFSFHEVKDN,2.99
24,TGADIIVIKYNVNDKFSFHEVKDN,2.99

row,Variant,protein stability index
1,SGADIIVIKYNVNDKFSFHEVKDN,3.49
2,CGADIIVIKYNVNDKFSFHEVKDN,2.27
3,PGADIIVIKYNVNDKFSFHEVKDN,2.18
4,FGADIIVIKYNVNDKFSFHEVKDN,2.69
5,GGADIWVIKYNVNDKFSFHEVKDN,1.79
6,GGADIGVIKYNVNDKFSFHEVKDN,4.03
7,GGADIFVIKYNVNDKFSFHEVKDN,1.5
8,GGADIPVIKYNVNDKFSFHEVKDN,4.12
9,GGADISVIKYNVNDKFSFHEVKDN,3.63
10,GGADIDVIKYNVNDKFSFHEVKDN,4.07
11,GGADINVIKYNVNDKFSFHEVKDN,3.83
12,GGADIMVIKYNVNDKFSFHEVKDN,1.92
13,GGADITVIKYNVNDKFSFHEVKDN,2.45
14,GGADIQVIKYNVNDKFSFHEVKDN,3.98
15,GGADIRVIKYNVNDKFSFHEVKDN,3.1
16,GGADIYVIKYNVNDKFSFHEVKDN,2.23
17,GGADIHVIKYNVNDKFSFHEVKDN,2.92
18,GGADIAVIKYNVNDKFSFHEVKDN,3.21
19,GGADIIVICYNVNDKFSFHEVKDN,2.65
20,GGADIIVILYNVNDKFSFHEVKDN,2.84
21,GGADIIVIAYNVNDKFSFHEVKDN,1.67
22,GGADIIVIWYNVNDKFSFHEVKDN,3.44

# Reference: the supplement of paper PMC10567573
